Kd data for one substance are collected here from patent US7153654.

The target in this test is anti-hCG monoclonal antibody from Organon Teknika. Description: competition: hCG displaces FpepT (5.5×10^-8 M) from anti-hCG Mab (4.5×10^-8 M), fluorescence EX=561 nm EM=590 nm; K1 of the fit.

In turn, “human chorionic gonadotrophin (hCG) (from UniProt P01215 25-116; P0DN86 21-165) (ligand)” gave an equilibrium dissociation constant (Kd) of 0.49 nM.
